The data set is described as follows: soluble on expression in E. coli; label from the status in PepcDB or PDB records.
Take “MPSETPQAEVGPTGCPHRSGPHSAKGSLEKGSPEDKEAKEPLWIRPDAPSRCTWQLGRPASESPHHHTPPAKSPKILPDILKKIGDTPMVRINKIGKKFGLKCELLAKCEFFNAGGSVKDRISLRMIEDAERDGTLKPGDTIIEPTSGNTGIGLALAAAVRGYRCIIVMPEKMSSEKVDVLRALGAEIVRTPTNARFDSPESHVGVAWRLKNEIPNSHILDQYRNASNPLAHYDTTADEILQQCDGKLDMLVASVGTGGTITGIARKLKEKCPGCRIIGVDPEGSILAEPEELNQTEQTTYEVEGIGYDFIPTVLDRTVVDKWFKSNDEEAFTFARMLIAQEGLLCGGSAGSTVAVAVKAAQELQEGQRCVVILPDSVRNYMTKFLSDRWMLQKGFLKEEDLTEKKPWWWHLRVQELGLSAPLTVLPTITCGHTIEILREKGFDQAPVVDEAGVILGMVTLGNMLSSLLAGKVQPSDQVGKVIYKQFKQIRLTDTLGRLSHILEMDHFALVVHEQIQYHSTGKSSQRQMVFGVVTAIDLLNFVAAQERDQK”: the “soluble on expression in E. coli” value was “soluble”.

Take “MPTFRSNIVVFNLIARRAFTTTSTKNMGFVEKVRLLDYWKIQDSALQSEFPRSRLVLMVDRRLLVTKDQPDVQMVELSFDDLKQRLGEYGLQFDLSNSCLLDALSTDVDMIPLFGTSIDAADPPEDSPISKKEVLKQLGNSLGGRFTDIRMAMLTMREERQRNLLAKFQSLTKWASIYRRCPKCAAALKMRSSKSGAECVTCQRVYYPTFSPVSITLITDPTNEHALLVRHRGSAGGVFTAVAGFAHSGESMAECARREIAEEVGIEVDSIRSLDMSQPWPMPDSSLMIAHVAVAKIDQKISVCPDELETAQWFTRHQVKEALTTTLADPLLKNLPRTLDDRQTLHYIPPAGAIAHQMIRQWVDGKLENHNSRI”: the “soluble on expression in E. coli” value was “not soluble”.

Regarding “MPTIQQLVRKGRRDKISKVKTAALKGSPQRRGVCTRVYTTTPKKPNSALRKVARVKLTSQVEVTAYIPGEGHNLQEHSMVLVRGGRVKDLPGVRYKIIRGSLDTQGVKNRKQARSRYGAKKEKG”, the “soluble on expression in E. coli” value is “not soluble”.

As to “MPTNNAPQVAINDIGSAEDFLAAIDATIKYFNDGDIVEGTVVKVDRDEVLLDIGYKTEGVIPSRELSIKHDVDPDEVVEVGDQIDALVLTKEDKEGRLILSKKRAQYERAWGAIEELKEKDEPVTGTVIEVVKGGLIIDIGLRGFLPASLVEMRRVRDLDPYIGQELEAKIIELDKNRNNVVLSRRAFLEQTQSEVRSEFLHQLQKGQVRKGVVSSIVNFGAFVDLGGVDGLVHVSELSWKHIDHPSEVVTVGDEVTVEVLEVDLDRERVSLSLKATQEDPWRVFARTHAVGQIVPGKVTKLVPFGAFVRVEEGIEGLVHISELAQRHVEVPDQVVAVGEEVMVKVIDIDLERRRISLSLKQADEDYTEEFDPSKYGMADSYDEQGNYIFPEGFDAETNEWLEGFDEQRQAWEARYAESERRFTAHTAQIERRRQQAEEAAAEAPAGNYSTDSAEDAPAAEAVEESAGSLASDEQLAALREKLAGNLEHHHHHH”, the “soluble on expression in E. coli” value is “soluble”. As for “MPTPAYIKIVGQTQGNITAGAFTADSVGNVFQQGHEDQILVQEIKHEVTTPTDPQSGQPSGQRVHKPFIFTSSLNKATPLMYQALATGEMLPTVEVSWYRTSSEGKQEHFFTTTLEDATIVSINTVLPHALDKDNENYTQLVEVSLAYRKITWAHDVANTEGSDDWRAPAA”, the “soluble on expression in E. coli” value is “not soluble”. In the case of “MPTPDFVLQLREKIGNDPLFLPGVTAVVIKDVPEGAPITAVPEVLLVKRADNGEWTPVTGIVDPGEQPHSAAVREVKEETGLDVTVEALLGVGAVGPVTYPNGDVSHYMDTAMRCEVVGDSTPRIGDDENTEVRWFSVMQMPPMKPRFRLVVGDAVAQLRRPEGFRPRMGYEKRERRR”, the “soluble on expression in E. coli” value was “not soluble”. Take “MPTPEDVPMDENDAGRVAEGSQDESKTPSREVLKKLLNEVEMAEMEENEMWYLISQKWWNSLIKAVRDGFVDDVGPIDNSQISECRNGSFFLKQRLAEQVDYTPVPEILFKRLERFYHIDDDRRDYIQRRVVRKDGKLCIEVYPRIVHITSARNRDIKADLVLRPDDTMVSLRERVIGELSLSTTDNIRFYVMNGENYELIDTAQSIDSYFDTVQKVVVDVEEDGEFFIKGKSATPKSLFGTQSSSSHGGNGISNSYNSPSPSTGVVTRTTPGACGLSNLGNTCFMASAFQCLSNMPPLREYFLANTYQNDINEDNPLGTHGHLAMAVGELMKGMWSGDYASINPRKFKSIIGQFAPRFNGYSQQDAHELMAYVLDGLHEDLNRIKKKPYIEDSDEDAKLPEAEYAAKSWEVYKMRNDSIIVDTLHGQLKSTLICPVCEKISIKFDPFGYLSLPLPPKEQIVKQTVIVMFLTRKWAKFSLGITDTTTVEEAERLMLDKLQPEQQHHFVFFHVPSQYHDDITMMRPGDRVRMPGREVYVAEVEHDLQVKGTRLFVAYNRIKLVRSASLPMIYSLPTGYPLTRGFLNDHVFSTTKHFFINPKAVAELGGGNSNDDDSMSGSNSADEREPYKLFVGPPGSTASLPIPPTDDPIPFPDENSHDIYSNFLQIVFQWKDLKIFNQYKGNELIEREMTVSTRRKVLLQETLDWFTTKEQLGEQDSWYCPQCKKHERATKQLALWKLPEILILHLKRFQYTKWSREKLTWEVVIPVRGLDLTDKVANPNHEKAIYDLIAVSRHYGSLSGGHYTAIGYNDREQKWFDFNDSSANPTYPPAEPYESSDPYILVYRRRKLDSNGKPIEPSAVSESLHSRPKRGAAPTISSATSSASSSRHQVDENMEMEED”: the “soluble on expression in E. coli” value is recorded as “not soluble”. Under “MPTPGTGSVPELQLVPFQLGHFPILQRWFATEKELVQWAGPALRHPLSLEQMHEDLAESRRRPPLRLLWSACRDDQVIGHCQLLFDRRNGVVRLARIVLAPSARGQGLGLPMLEALLAEAFADADIERVELNVYDWNAAARHLYRRAGFREEGLRRSATRVGRERWNVVLMGLLRQEWAAGGAGND” stands “soluble”; under “MPTRKSKILDVALSNSVISNLNIMAPIGSSDHNTIKFTVQLLQNISVPKKMIPDFSKLDWPCCATYFENIEWGHIRTMFSQAVPTMPMPETSKPVPQYLRSFEQMVKNQFSKTIMSKTMNDFIEYIYLARKYRKKLRKYLSNLEVKLFKKKGNTLIDNDENEIVSELDKANLLASYFEAQYTNQNNTNFALDDDFVSDQPIPWVTDAEVLKVIMASKKSCSVTSDQVPFTFIKILSPLISSVLAQIFNLSMMRGQVPHAWTESIVIPLDKITNANNPTDFRPISLTSHLCRVYERCILAKIELFLIDNKFWSQNQHGFRPKKSTVTNMLESLNDWSKSIDLGEQIDIIYLDFSKAFDRLPHDLLLDKLVSLRMNKNLLIWLNEFLSNRSFRVRIGQTLSSRKLATCGVPQGAVLSPLLFGIYVNDISSILPEKVACKQFADDTKLYVSTPKTESENNLQSALDAVVDWTRGSKLTLNQSETVHVTVGKRRTDFKYHLDGYPIERKAITRDLGFLISEKLDFSEHWRKCINLAKFQLANMFNQYSTSNKKLMILLYKTFIRPRLEYGTVVSSPTKKSDEKAIESVQNAFTRRLYSRIKKRYINPTDKDYKTAMERNELFDLQTLSTRRKIIDRIQVIRMNNGKVDLKTSEFFEQQETHTRSKKKYIWSTVPIKHRVFQTFILLMVLVQFSIGLGNFARDIRNFGGAGSGNKTCDPSRDNDCDSPATVPSSTTKAPRYRNNTTESPPPTPPSSPPAPEGIYSFLQNNFIPRKINNLPVFQDVTTKGIQHVILVSSRLRTSLQTEKSRISQNSISYLIIDFLKSITLEIEALTNTSNCKPNSKDLRCPGKPLFCKFKNFDAAECKCSEPRAKVCKEDFEFDAQREYCTKSVKHPKDLRCEGELLFFKFHWNTTACHCINHQRDRVCAHDFQSDEDKKYQCNKKPTDLRCKKQKLYCKFHLDDKDCRCFESNQKACKKGVSGFYSSNDTLKFPSSIWRQFKLYFKKILQIFNRQMRGIFNVIHHRLHHSARKT”, “not soluble”; under “MPTTIEREFEELDTQRRWQPLYLEIRNESHDYPHRVAKFPENRNRNRYRDVSPYDHSRVKLQNAENDYINASLVDIEEAQRSYILTQGPLPNTCCHFWLMVWQQKTKAVVMLNRIVEKESVKCAQYWPTDDQEMLFKETGFSVKLLSEDVKSYYTVHLLQLENINSGETRTISHFHYTTWPDFGVPESPASFLNFLFKVRESGSLNPDHGPAVIHCSAGIGRSGTFSLVDTCLVLMEKGDDINIKQVLLNMRKYRMGLIQTPDQLRFSYMAIIEGAKCIKGDSSIQKRWKELSKEDLSPAFDHSPNKIMTEKYN”, “soluble”. Turning to “MPVLHNRISNDELKAKMLAESEPRTTISFYKYFTIASPQQTRDALYQVFTALDVFGRVYLAHEGINAQISVPQSKLETFRQQLYTFDPALDGVRLNIALEDDGKSFWVLRMKVRDRIVADGIDDPTFDASNVGDYLKAADVNAMLDDPDAVFIDMRNHYEYEVGHFENALEIPADTFREQLPKAVEMLREHADKKIVMYCTGGIRCEKASAWMKHNGFNKVWHIEGGIIEYARRARAQGLPVRFIGKNFVFDERMGERISDEVIAHCHQCGASCDSHTNCKNDGCHLLFIQCPQCASKFNGCCSEQCCEELALPEEEQRRRRAGRENGNKIFNKSRGRLNSKLSIPDPAE”, the “soluble on expression in E. coli” value is “not soluble”.

Take “MPWIAKRRGHDADFFIMRIPRIYHPELLTSGTQISLCEDAANHIGRVLRMGPGQALQLFDGSNQVFDAEIISASKKSVEVQVMKGEIDDRESPLHIHLGQVMSRGEKMEFTIQKSIELGVSLITPLFSERCGVKLDSERLNKKRQQWQKIAIAACEQCGRNRVPEIRPPMALEAWCAEQDSGLKLNLHPRAHASINTLPLPVERVRLLIGPEGGLSADEIAMTARYQFTDILLGPRVLRTETTALTAITALQVRFGDLG”: the “soluble on expression in E. coli” value is recorded as “not soluble”. Take “MPYEADDYLSRHFQTSGTDLARKVDELAALAAPGDSPNLALYREMLFTVTRMAQADRNRWDAKIMLQTLREMEHAFSVLEQFKRRRKVTVFGSARTPVEHPVYALARKLGEELARYDLMVITGAGGGIMAAAHEGAGLENSLGFNITLPFEQHANHTVDGSGNLLSFHFFFLRKLFFVKEADALVLCPGGFGTLDEALEVLTLVQTGKSPLVPIVLLDQPGGRYWEHALEFMQEQLLENHYILPADMRLMRLVHSAEDAVKEIAQFYRNFHSSRWLKGTFVIRLNHALNEAALAHLHEHFASLCLSGGFQQQAYSEQEQDEPEFRNLTRLAFVFNGRDQGRLRELLDYINLPENWD”: the “soluble on expression in E. coli” value is given as “not soluble”. Under “MPYLNADRGKSGGYHIGHTLLWSSGKSRLEAIRYHVETSALEKIMFARLLSSERDEYSSEETEHRFDEGLQIYGYSPEDVSKARNKMAGFLAGWRHAVSVRRASMEQSADTEQ” stands “soluble”.

Turning to “MQAFEPYIALNSHVRKPVIHISLNPSPKDILSKEQMTVLAQEFMEKFGYGNQPYIVWLHEDIDRKHMHIISVRINEKGEKIDHNREAIRAQNICRDMEVKYGLHSTLGEHSERELLSLQKVDYPKGDVKAQVKHTARTLLECYNCHSLAEYNTLLNLYNVTVYEVRGSVDGKEYYGIMYGALDDDGQQAGTPFKSSKFGKVFGYEALQKKFAATAEKVKRNSLAERARQEIVKAMQDISTKEAFARRLKDADIEVVYRINPEGRLYGITFIDHTNRTVFNGSRLGKAFSANVFNELFNNPDADRTKLIPPPEQDTPRQARETDAEERQEREEYRQQENRGNYQSEPSGSLIDTSALGAIDIFSVLMEDDHTHEYIDPAFRFGHKKKKKRRRRLLEHHHHHH”, the “soluble on expression in E. coli” value is recorded as “soluble”. To “MQDLPPCPKCNDAYTYHDGTQLICPSCLYEWNENEVNDEELIVKDCHNNLLQNGDSVILIKDLKVKNSSLVLKKGTKIKNTKLVNSDHNVDCKIEGQSLSLKSEFLKKA” belongs “not soluble”.

Values taken from the DeepSol protein solubility set.
